Assay results from PMC4258114.

Tested on: SaiR-His6 (Bacillus anthracis str. Sterne 7702)
Test: restriction enzyme

With “spxA2 SaiR site 1 wild-type (oMN14-666/oMN14-667)” the K half was 6 nM.
